In the supplement of paper PMC12458215:
± gives the uncertainty stated by the source.

Tested on: HEK293T
Experiment: plasma membrane surface immunostaining intensity (anti-HA, deep receptor scanning) (arbitrary fluorescence units); higher = higher plasma membrane expression

Sequence	plasma membrane surface immunostaining intensity (GPCR class: A (Olfactory))	other results
MGKENCTTVAEFILLGLSDVPELRVCLFLLFLLIYGVTLLANLGMIALIQVSSRLHTPMYFFLSHLSSVDFCYSSIIVPKMLANIFNKDKAISFLGCMVQFYLFCTCVVTEVFLLAVMAYDRFVAICNPLLYTVTMSWKVRVELASCCYFCGTVCSLIHLCLALRIPFYRSNVINHFFCDLPPVLSLACSDITVNETLLFLVATLNESVTIMIILTSYLLILTTILKMGSAEGRHKAFSTCASHLTAITVFHGTVLSIYCRPSSGNSGDADKVATVFYTVVIPMLNSVIYSLRNKDVKEALRKVMGSKIHS [OR5L1]	145 ± 28	
MGKENCTTVAEFILLGLSDVPELRVCLFLLFLLIYGVTLLANLGMTALIQVSSRLHTPVYFFLSHLSFVDFCYSSIIVPKMLANIFNKDKAISFLGCMVQFYLFCTCGVTEVFLLAVMAYDRFVAICNPLLYMVTMSQKLRVELTSCCYFCGTVCSLIHSSLALRILFYRSNVINHFFCDLPPLLSLACSDVTVNETLLFLVATLNESVTIMIILTSYLLILTTILKIHSAESRHKAFSTCASHLTAITVSHGTILYIYCRPSSGNSGDVDKVATVFYTVVIPMLNPLIYSLRNKDVNKALRKVMGSKIHS [OR5L2]	140 ± 35	
MGKTKNTSLDAVVTDFILLGLSHPPNLRSLLFLVFFIIYILTQLGNLLILLTMWADPKLCARPMYILLGVLSFLDMWLSSVTVPLLILDFTPSIKAIPFGGCVAQLYFFHFLGSTQCFLYTLMAYDRYLAICQPLRYPVLMNGRLCTVLVAGAWVAGSMHGSIQATLTFRLPYCGPNQVDYFICDIPAVLRLACADTTVNELVTFVDVGVVAASCFMLILLSYANIVNAILKIRTTDGRRRAFSTCGSHLIVVTVYYVPCIFIYLRAGSKDPLDGAAAVFYTVVTPLLNPLIYTLRNQEVKSALKRITAG [OR10G2]	111 ± 16	
MGMEGLLQNSTNFVLTGLITHPAFPGLLFAIVFSIFVVAITANLVMILLIHMDSRLHTPMYFLLSQLSIMDTIYICITVPKMLQDLLSKDKTISFLGCAVQIFLYLTLIGGEFFLLGLMAYDRYVAVCNPLRYPLLMNRRVCLFMVVGSWVGGSLDGFMLTPVTMSFPFCRSREINHFFCEIPAVLKLSCTDTSLYETLMYACCVLMLLIPLSVISVSYTHILLTVHRMNSAEGRRKAFATCSSHIMVVSVFYGAAFYTNVLPHSYHTPEKDKVVSAFYTILTPMLNPLIYSLRNKDVAAALRKVLGRCGSSQSIRVATVIRKG [OR2T2]	130 ± 17	
MGMEGLLQNSTNFVLTGLITHPAFPGLLFAVVFSIFVVAITANLVMILLIHMDSRLHTPMYFLLSQLSIMDTIYICITVPKMLQDLLSKDKTISFLGCAVQIFYLTLIGGEFFLLGLMAYDRYVAVCNPLRYPLLMNRRVCLFMVVGSWVGGSLDGFMLTPVTMSFPFCRSREINHFFCEIPAVLKLSCTDTSLYETLMYACCVLMLLIPLSVISVSYTHILLTVHRMNSAEGRRKAFATCSSHIMVVSVFYGAAFYTNVLPHSYHTPEKDKVVSAFYTILTPMLNPLIYSLRNKDVAAALRKVLGRCGSSQSIRVATVIRKG [OR2T35]	126 ± 14	
MGNCLHRAELSPSTENSSQLDFEDVWNSSYGVNDSFPDGDYGANLEAAAPCHSCNLLDDSALPFFILTSVLGILASSTVLFMLFRPLFRWQLCPGWPVLAQLAVGSALFSIVVPVLAPGLGSTRSSALCSLGYCVWYGSAFAQALLLGCHASLGHRLGAGQVPGLTLGLTVGIWGVAALLTLPVTLASGASGGLCTLIYSTELKALQATHTVACLAIFVLLPLGLFGAKGLKKALGMGPGPWMNILWAWFIFWWPHGVVLGLDFLVRSKLLLLSTCLAQQALDLLLNLAEALAILHCVATPLLLALFCHQATRTLLPSLPLPEGWSSHLDTLGSKS [ACKR1]		plasma membrane surface immunostaining intensity (GPCR class: A): 5030 ± 340
MGNRSTADADGLLAGRGPAAGASAGASAGLAGQGAAALVGGVLLIGAVLAGNSLVCVSVATERALQTPTNSFIVSLAAADLLLALLVLPLFVYSEVQGGAWLLSPRLCDALMAMDVMLCTASIFNLCAISVDRFVAVAVPLRYNRQGGSRRQLLLIGATWLLSAAVAAPVLCGLNDVRGRDPAVCRLEDRDYVVYSSVCSFFLPCPLMLLLYWATFRGLQRWEVARRAKLHGRAPRRPSGPGPPSPTPPAPRLPQDPCGPDCAPPAPGLPRGPCGPDCAPAAPSLPQDPCGPDCAPPAPGLPPDPCGSNCAPPDAVRAAALPPQTPPQTRRRRRAKITGRERKAMRVLPVVVGAFLLCWTPFFVVHITQALCPACSVPPRLVSAVTWLGYVNSALNPVIYTVFNAEFRNVFRKALRACC [DRD4]		plasma membrane surface immunostaining intensity (GPCR class: A): 602 ± 92
MGNWSTVTEITLIAFPALLEIRISLFVVLVVTYTLTATGNITIISLIWIDHRLQTPMYFFLSNLSFLDILYTTVITPKLLACLLGEEKTISFAGCMIQTYFYFFLGTVEFILLAVMSFDRYMAICDPLHYTVIMNSRACLLLVLGCWVGAFLSVLFPTIVVTRLPYCRKEINHFFCDIAPLLQVACINTHLIEKINFLLSALVILSSLAFTTGSYVYIISTILRIPSTQGRQKAFSTCASHITVVSIAHGSNIFVYVRPNQNSSLDYDKVAAVLITVVTPLLNPFIYSLRNEKVQEVLRETVNRIMTLIQRKT [OR6M1]	127 ± 27	
MGNWTAAVTEFVLLGFSLSREVELLLLVLLLPTFLLTLLGNLLIISTVLSCSRLHTPMYFFLCNLSILDILFTSVISPKVLANLGSRDKTISFAGCITQCYFYFFLGTVEFLLLTVMSYDRYATICCPLRYTTIMRPSVCIGTVVFSWVGGFLSVLFPTILISQLPFCGSNIINHFFCDSGPLLALACADTTAIELMDFMLSSMVILCCIVLVAYSYTYIILTIVRIPSASGRKKAFNTCASHLTIVIISSGITVFIYVTPSQKEYLEINKIPLVLSSVVTPFLNPFIYTLRNDTVQGVLRDVWVRVRGVFEKRMRAVLRSRLSSNKDHQGRACSSPPCVYSVKLQC [OR6J1]	279 ± 110	
MGPRAKTISSLFFLLWVLAEPAENSDFYLPGDYLLGGLFSLHANMKGIVHLNFLQVPMCKEYEVKVIGYNLMQAMRFAVEEINNDSSLLPGVLLGYEIVDVCYISNNVQPVLYFLAHEDNLLPIQEDYSNYISRVVAVIGPDNSESVMTVANFLSLFLLPQITYSAISDELRDKVRFPALLRTTPSADHHIEAMVQLMLHFRWNWIIVLVSSDTYGRDNGQLLGERVARRDICIAFQETLPTLQPNQNMTSEERQRLVTIVDKLQQSTARVVVVFSPDLTLYHFFNEVLRQNFTGAVWIASESWAIDPVLHNLTELRHLGTFLGITIQSVPIPGFSEFREWGPQAGPPPLSRTSQSYTCNQECDNCLNATLSFNTILRLSGERVVYSVYSAVYAVAHALHSLLGCDKSTCTKRVVYPWQLLEEIWKVNFTLLDHQIFFDPQGDVALHLEIVQWQWDRSQNPFQSVASYYPLQRQLKNIQDISWHTINNTIPMSMCSKRCQSGQKKKPVGIHVCCFECIDCLPGTFLNHTEDEYECQACPNNEWSYQSETSCFKRQLVFLEWHEAPTIAVALLAALGFLSTLAILVIFWRHFQTPIVRSAGGPMCFLMLTLLLVAYMVVPVYVGPPKVSTCLCRQALFPLCFTICISCIAVRSFQIVCAFKMASRFPRAYSYWVRYQGPYVSMAFITVLKMVIVVIGMLATGLSPTTRTDPDDPKITIVSCNPNYRNSLLFNTSLDLLLSVVGFSFAYMGKELPTNYNEAKFITLSMTFYFTSSVSLCTFMSAYSGVLVTIVDLLVTVLNLLAISLGYFGPKCYMILFYPERNTPAYFNSMIQGYTMRRD [TAS1R2]		plasma membrane surface immunostaining intensity (GPCR class: Taste): 229 ± 23
MGRWVNQSYTDGFFLLGIFSHSQTDLVLFSAVMVVFTVALCGNVLLIFLIYLDAGLHTPMYFFLSQLSLMDLMLVCNIVPKMAANFLSGRKSISFVGCGIQIGFFVSLVGSEGLLLGLMAYDRYVAVSHPLHYPILMNQRVCLQITGSSWAFGIIDGVIQMVAAMGLPYCGSRSVDHFFCEVQALLKLACADTSLFDTLLFACCVFMLLLPFSIIMASYACILGAVLRIRSAQAWKKALATCSSHLTAVTLFYGAAMFMYLRPRRYRAPSHDKVASIFYTVLTPMLNPLIYSLRNGEVMGALRKGLDRCRIGSQH [OR2V1]	153 ± 28	
MGSFNTSFEDGFILVGFSDWPQLEPILFVFIFIFYSLTLFGNTIIIALSWLDLRLHTPMYFFLSHLSLLDLCFTTSTVPQLLINLCGVDRTITRGGCVAQLFIYLALGSTECVLLVVMAFDRYAAVCRPLHYMAIMHPHLCQTLAIASWGAGFVNSLIQTGLAMAMPLCGHRLNHFFCEMPVFLKLACADTEGTEAKMFVARVIVVAVPAALILGSYVHIAHAVLRVKSTAGRRKAFGTCGSHLLVVFLFYGSAIYTYLQSIHNYSEREGKFVALFYTIITPILNPLIYTLRNKDVKGALWKVLWRGRDSG [OR2Y1]	132 ± 17	
MGTARIAPGLALLLCCPVLSSAYALVDADDVMTKEEQIFLLHRAQAQCEKRLKEVLQRPASIMESDKGWTSASTSGKPRKDKASGKLYPESEEDKEAPTGSRYRGRPCLPEWDHILCWPLGAPGEVVAVPCPDYIYDFNHKGHAYRRCDRNGSWELVPGHNRTWANYSECVKFLTNETREREVFDRLGMIYTVGYSVSLASLTVAVLILAYFRRLHCTRNYIHMHLFLSFMLRAVSIFVKDAVLYSGATLDEAERLTEEELRAIAQAPPPPATAAAGYAGCRVAVTFFLYFLATNYYWILVEGLYLHSLIFMAFFSEKKYLWGFTVFGWGLPAVFVAVWVSVRATLANTGCWDLSSGNKKWIIQVPILASIVLNFILFINIVRVLATKLRETNAGRCDTRQQYRKLLKSTLVLMPLFGVHYIVFMATPYTEVSGTLWQVQMHYEMLFNSFQGFFVAIIYCFCNGEVQAEIKKSWSRWTLALDFKRKARSGSSSYSYGPMVSHTSVTNVGPRVGLGLPLSPRLLPTATTNGHPQLPGHAKPGTPALETLETTPPAMAAPKDDGFLNGSCSGLDEEASGPERPPALLQEEWETVM [PTH1R]		plasma membrane surface immunostaining intensity (GPCR class: B): 770 ± 69
MGTCDIVTEANISSGPESNTTGITAFSMPSWQLALWATAYLALVLVAVTGNAIVIWIILAHRRMRTVTNYFIVNLALADLCMAAFNAAFNFVYASHNIWYFGRAFCYFQNLFPITAMFVSIYSMTAIAADRYMAIVHPFQPRLSAPSTKAVIAGIWLVALALASPQCFYSTVTMDQGATKCVVAWPEDSGGKTLLLYHLVVIALIYFLPLAVMFVAYSVIGLTLWRRAVPGHQAHGANLRHLQAMKKFVKTMVLVVLTFAICWLPYHLYFILGSFQEDIYCHKFIQQVYLALFWLAMSSTMYNPIIYCCLNHRFRSGFRLAFRCCPWVTPTKEDKLELTPTTSLSTRVNRCHTKETLFMAGDTAPSEATSGEAGRPQDGSGLWFGYGLLAPTKTHVEI [TACR2]		plasma membrane surface immunostaining intensity (GPCR class: A): 474 ± 41
MGTDNQTWVSEFILLGLSSDWDTRVSLFVLFLVMYVVTVLGNCLIVLLIRLDSRLHTPMYFFLTNLSLVDVSYATSVVPQLLAHFLAEHKAIPFQSCAAQLFFSLALGGIEFVLLAVMAYDRYVAVCDALRYSAIMHGGLCARLAITSWVSGFISSPVQTAITFQLPMCRNKFIDHISCELLAVVRLACVDTSSNEVTIMVSSIVLLMTPFCLVLLSYIQIISTILKIQSREGRKKAFHTCASHLTVVALCYGVAIFTYIQPHSSPSVLQEKLFSVFYAILTPMLNPMIYSLRNKEVKGAWQKLLWKFSGLTSKLAT [OR2F1]	181 ± 74	
MGTEATEQVSWGHYSGDEEDAYSAEPLPELCYKADVQAFSRAFQPSVSLTVAALGLAGNGLVLATHLAARRAARSPTSAHLLQLALADLLLALTLPFAAAGALQGWSLGSATCRTISGLYSASFHAGFLFLACISADRYVAIARALPAGPRPSTPGRAHLVSVIVWLLSLLLALPALLFSQDGQREGQRRCRLIFPEGLTQTVKGASAVAQVALGFALPLGVMVACYALLGRTLLAARGPERRRALRVVVALVAAFVVLQLPYSLALLLDTADLLAARERSCPASKRKDVALLVTSGLALARCGLNPVLYAFLGLRFRQDLRRLLRGGSCPSGPQPRRGCPRRPRLSSCSAPTETHSLSWDN [CCR10]		plasma membrane surface immunostaining intensity (GPCR class: A): 424 ± 20
